Test results taken from patent US20220220215A1.

B1: TPP-1246 CD137A-6GS-HSA2-6GS-PD138G7(G109D) (bispecific antibody)
chain: EVQLVESGGGLVQPGGSLRLSCAASGFTLSNYWMNWVRQAPGKGLEWVANINQDGSERYYVDSVKGRFTISRDNAKNSLYLQMNSLRAEDTAVYYCARGGEGYGVDHYGLDVSGQGTTVTVSSGGGGSGGGGSGGGGSGGGGSGGGGSGGGGSEVQLVESGGGLVKPGGSLRLSCAASGFTFSNYNMNWVRQAPGKGLEWVSSISSAGTHIYYADSVKGRFTISRDNAKNSLYLQMNSLRAEDTAVYYCARDPHSTGWYKDFDYWGQGTLVTVSSGGGGSGGGGSGGGGSGGGGSGGGGSGGGGSEVQLVESGGGVVRPGGSLRLSCAASGFTFDDYAMSWVRQAPGKGLEWVSGITWNGGSTGYADSVKDRFTISRDNAKNSLYLQMNSLRAEDTALYYCVRDKYSYAWSYDDFDIWGQGTMVTVSS
B2: TPP-1290 PD138G7(G109D)-6GS-CD137A-6GS-HSA2 (bispecific antibody)
chain: EVQLVESGGGVVRPGGSLRLSCAASGFTFDDYAMSWVRQAPGKGLEWVSGITWNGGSTGYADSVKDRFTISRDNAKNSLYLQMNSLRAEDTALYYCVRDKYSYAWSYDDFDIWGQGTMVTVSSGGGGSGGGGSGGGGSGGGGSGGGGSGGGGSEVQLVESGGGLVQPGGSLRLSCAASGFTLSNYWMNWVRQAPGKGLEWVANINQDGSERYYVDSVKGRFTISRDNAKNSLYLQMNSLRAEDTAVYYCARGGEGYGVDHYGLDVSGQGTTVTVSSGGGGSGGGGSGGGGSGGGGSGGGGSGGGGSEVQLVESGGGLVKPGGSLRLSCAASGFTFSNYNMNWVRQAPGKGLEWVSSISSAGTHIYYADSVKGRFTISRDNAKNSLYLQMNSLRAEDTAVYYCARDPHSTGWYKDFDYWGQGTLVTVSS
B3: TPP-1438 CD137A-6GS-HSA2-6GS-PD138G7(G109D)-6GS-PD138G7(G109D) (bispecific antibody)
chain: EVQLVESGGGLVQPGGSLRLSCAASGFTLSNYWMNWVRQAPGKGLEWVANINQDGSERYYVDSVKGRFTISRDNAKNSLYLQMNSLRAEDTAVYYCARGGEGYGVDHYGLDVSGQGTTVTVSSGGGGSGGGGSGGGGSGGGGSGGGGSGGGGSEVQLVESGGGLVKPGGSLRLSCAASGFTFSNYNMNWVRQAPGKGLEWVSSISSAGTHIYYADSVKGRFTISRDNAKNSLYLQMNSLRAEDTAVYYCARDPHSTGWYKDFDYWGQGTLVTVSSGGGGSGGGGSGGGGSGGGGSGGGGSGGGGSEVQLVESGGGVVRPGGSLRLSCAASGFTFDDYAMSWVRQAPGKGLEWVSGITWNGGSTGYADSVKDRFTISRDNAKNSLYLQMNSLRAEDTALYYCVRDKYSYAWSYDDFDIWGQGTMVTVSSGGGGSGGGGSGGGGSGGGGSGGGGSGGGGSEVQLVESGGGVVRPGGSLRLSCAASGFTFDDYAMSWVRQAPGKGLEWVSGITWNGGSTGYADSVKDRFTISRDNAKNSLYLQMNSLRAEDTALYYCVRDKYSYAWSYDDFDIWGQGTMVTVSS
B4: TPP-1439 PD138G7(G109D)-6GS-PD138G7(G109D)-6GS-CD137A-7-6GS-HSA2 (bispecific antibody)
chain: EVQLVESGGGVVRPGGSLRLSCAASGFTFDDYAMSWVRQAPGKGLEWVSGITWNGGSTGYADSVKDRFTISRDNAKNSLYLQMNSLRAEDTALYYCVRDKYSYAWSYDDFDIWGQGTMVTVSSGGGGSGGGGSGGGGSGGGGSGGGGSGGGGSEVQLVESGGGVVRPGGSLRLSCAASGFTFDDYAMSWVRQAPGKGLEWVSGITWNGGSTGYADSVKDRFTISRDNAKNSLYLQMNSLRAEDTALYYCVRDKYSYAWSYDDFDIWGQGTMVTVSSGGGGSGGGGSGGGGSGGGGSGGGGSGGGGSEVQLVESGGGLVQPGGSLRLSCAASGFTLSNYWMNWVRQAPGKGLEWVANINQDGSERYYVDSVKGRFTISRDNAKNSLYLQMNSLRAEDTAVYYCARGGEGYGVDHYGLDVSGQGTTVTVSSGGGGSGGGGSGGGGSGGGGSGGGGSGGGGSEVQLVESGGGLVKPGGSLRLSCAASGFTFSNYNMNWVRQAPGKGLEWVSSISSAGTHIYYADSVKGRFTISRDNAKNSLYLQMNSLRAEDTAVYYCARDPHSTGWYKDFDYWGQGTLVTVSS
B5: TPP-1410 PD138G7(G109D)-1GS-CD137A-6GS-HSA2 (bispecific antibody)
chain: EVQLVESGGGVVRPGGSLRLSCAASGFTFDDYAMSWVRQAPGKGLEWVSGITWNGGSTGYADSVKDRFTISRDNAKNSLYLQMNSLRAEDTALYYCVRDKYSYAWSYDDFDIWGQGTMVTVSSGGGGSEVQLVESGGGLVQPGGSLRLSCAASGFTLSNYWMNWVRQAPGKGLEWVANINQDGSERYYVDSVKGRFTISRDNAKNSLYLQMNSLRAEDTAVYYCARGGEGYGVDHYGLDVSGQGTTVTVSSGGGGSGGGGSGGGGSGGGGSGGGGSGGGGSEVQLVESGGGLVKPGGSLRLSCAASGFTFSNYNMNWVRQAPGKGLEWVSSISSAGTHIYYADSVKGRFTISRDNAKNSLYLQMNSLRAEDTAVYYCARDPHSTGWYKDFDYWGQGTLVTVSS
B6: TPP-1409 CD137A-1GS-HSA2-1GS-PD138G7(G109D) (bispecific antibody)
chain: EVQLVESGGGLVQPGGSLRLSCAASGFTLSNYWMNWVRQAPGKGLEWVANINQDGSERYYVDSVKGRFTISRDNAKNSLYLQMNSLRAEDTAVYYCARGGEGYGVDHYGLDVSGQGTTVTVSSGGGGSEVQLVESGGGLVKPGGSLRLSCAASGFTFSNYNMNWVRQAPGKGLEWVSSISSAGTHIYYADSVKGRFTISRDNAKNSLYLQMNSLRAEDTAVYYCARDPHSTGWYKDFDYWGQGTLVTVSSGGGGSEVQLVESGGGVVRPGGSLRLSCAASGFTFDDYAMSWVRQAPGKGLEWVSGITWNGGSTGYADSVKDRFTISRDNAKNSLYLQMNSLRAEDTALYYCVRDKYSYAWSYDDFDIWGQGTMVTVSS

molecular target: human CD137 and human PD-1 on stimulated primary human T cells (human); assay: flow cytometry, labelled VH on activated CD137+ human T cells (human control), n = 1

| EC50 [nM] | Binder |
| --- | --- |
| 3.75 | B1 |
| 6.87 | B2 |

molecular target: cynomolgus CD137 and cynomolgus PD-1 on activated CD137+ cynomolgus T cells (cynomolgus) (UniProt A9YYE7); assay: flow cytometry, labelled VH on activated CD137+ cynomolgus T cells, n = 3

| EC50 [nM] | Binder |
| --- | --- |
| 3.63 | B1 |
| 7.17 | B2 |

molecular target: human CD137 and human PD-1 on stimulated primary human T cells (human); assay: flow cytometry, AF488-labelled VH on pre-stimulated human CD8+ cells, average of 2 donors

| EC50 [nM] | Binder |
| --- | --- |
| 2.22 | B1 |
| 1.49 | B2 |

molecular target: CD137 and PD1 individually fused to subunits of NanoLuc luciferase, on the same cell (NanoBiT assay cells); assay: NanoBiT cell based protein interaction assay, luminescence on bridging of CD137 and PD1 on one cell

| EC50 [nM] | Binder |
| --- | --- |
| 0.105 | B3 |
| 0.0251 | B1 |
| 0.148 | B4 |
| 0.0515 | B2 |
| 0.0532 | B5 |
| 0.0259 | B6 |
